What all share (assay): purified protein
What all share (conditions): 50 mM HEPES pH 7.5, 250 mM NaCl, 100 µM ZnCl2, 37 °C, BSA 20 µg/mL in dilution buffer

The test system of data set [1] is CC(C)(O/N=C(\C(=O)N[C@@H]1C(=O)N2C(C(=O)[O-])=C(C[n+]3ccccc3)CS[C@H]12)c1csc(N)n1)C(=O)O.
For data set [2], the system named is CO/N=C(\C(=O)N[C@@H]1C(=O)N2C(C(=O)O)=C(COC(C)=O)CS[C@H]12)c1csc(N)n1.
Data set [3] concerns CO/N=C(\C(=O)N[C@@H]1C(=O)N2C(C(=O)[O-])=C(C[N+]3(C)CCCC3)CS[C@H]12)c1csc(N)n1.
Data set [4] deals with C[C@@H](O)[C@H]1C(=O)N2C(C(=O)O)=C(SCCN=CN)C[C@H]12.
The subject of data set [5] is C[C@@H](O)[C@H]1C(=O)N2C(C(=O)O)=C(S[C@@H]3CN[C@H](C(=O)N(C)C)C3)[C@H](C)[C@H]12.

Take IMP-26 (Pseudomonas aeruginosa): the Km is 677.2 µM in data set [1]; 192.1 µM in data set [2]; 497.1 µM in data set [3]; 932.6 µM in data set [4]; 218.8 µM in data set [5]. Moreover, the kcat was determined as 38.86 s⁻¹ in data set [1]; 31.92 s⁻¹ in data set [2]; 37.58 s⁻¹ in data set [3]; 159.51 s⁻¹ in data set [4]; 75.08 s⁻¹ in data set [5]. Moreover, the kcat/Km is 57000 M⁻¹ s⁻¹ in data set [1]; 166000 M⁻¹ s⁻¹ in data set [2]; 76000 M⁻¹ s⁻¹ in data set [3]; 171000 M⁻¹ s⁻¹ in data set [4]; 343000 M⁻¹ s⁻¹ in data set [5].

A word on the Km: it is the concentration of substrate that gives half-maximal velocity. For orientation: kcat means the number of substrate molecules converted per active site and unit of time at saturation. The kcat/Km is the second-order rate constant that governs catalysis at low substrate concentration.
